Reference: the supplement of paper PMC6379048

Assays:
Experiment in all cases: EC50 of free RNA motif oligo competing protein binding to immobilised probe
[1] = target: HSP90AB2P (UniProt Q58FF8)
Method in brief: (§1)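 Free RNA oligos (0 nM to 30 μM) were pre-incubated with HEK293-FT lysate (2.5 mg protein/well) for 1 h at 4°C, followed by 30 min at 4°C with the same 5′-amino-C6 oligos coupled to NHS-Sepharose beads. Bound proteins were quantified by label-free LC-MS/MS and normalised to the control. EC50 was derived from a four-parameter log-logistic fit, and Kd was obtained by multiplying EC50 by a protein-dependent depletion factor.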

[2] = target: T1, ZGPAT (UniProt Q8N5A5)
T1 sequence: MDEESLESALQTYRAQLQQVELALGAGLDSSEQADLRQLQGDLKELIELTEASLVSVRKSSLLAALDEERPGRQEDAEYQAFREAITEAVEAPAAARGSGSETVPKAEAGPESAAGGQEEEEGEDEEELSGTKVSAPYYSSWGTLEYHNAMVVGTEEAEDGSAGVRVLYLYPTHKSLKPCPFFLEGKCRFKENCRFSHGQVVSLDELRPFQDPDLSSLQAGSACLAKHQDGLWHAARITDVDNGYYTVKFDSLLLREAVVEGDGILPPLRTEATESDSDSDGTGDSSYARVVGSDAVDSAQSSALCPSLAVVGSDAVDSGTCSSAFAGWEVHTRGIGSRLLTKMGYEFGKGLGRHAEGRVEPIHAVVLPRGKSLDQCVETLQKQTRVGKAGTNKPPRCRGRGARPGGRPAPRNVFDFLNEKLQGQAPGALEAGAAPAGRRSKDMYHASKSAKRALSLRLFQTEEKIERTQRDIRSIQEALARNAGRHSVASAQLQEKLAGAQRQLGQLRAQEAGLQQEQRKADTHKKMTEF
Method in brief: as §1

[3] = target: T2, PABPN1 (UniProt Q86U42)
T2 sequence: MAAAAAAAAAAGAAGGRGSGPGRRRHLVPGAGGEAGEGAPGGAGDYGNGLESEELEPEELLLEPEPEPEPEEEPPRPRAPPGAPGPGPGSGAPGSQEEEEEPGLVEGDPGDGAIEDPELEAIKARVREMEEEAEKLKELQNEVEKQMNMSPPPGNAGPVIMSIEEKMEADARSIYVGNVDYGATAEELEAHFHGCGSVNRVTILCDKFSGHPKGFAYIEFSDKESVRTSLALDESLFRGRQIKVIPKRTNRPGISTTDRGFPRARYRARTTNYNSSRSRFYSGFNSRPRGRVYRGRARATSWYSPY
Method in brief: as §1

[4] = target: MRPL50 (UniProt Q8N5N7)
Method in brief: as §1

[5] = target: T3, RBM38 (UniProt Q9H0Z9)
T3 sequence: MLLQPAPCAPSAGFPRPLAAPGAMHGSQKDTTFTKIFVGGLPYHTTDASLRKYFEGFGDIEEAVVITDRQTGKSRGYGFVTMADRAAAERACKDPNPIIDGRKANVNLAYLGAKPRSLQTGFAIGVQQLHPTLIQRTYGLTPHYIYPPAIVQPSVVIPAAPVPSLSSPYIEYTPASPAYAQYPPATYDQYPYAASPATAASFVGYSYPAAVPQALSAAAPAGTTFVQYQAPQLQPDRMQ
Method in brief: as §1

[6] = target: T4, PRPF4 (UniProt O43172)
T4 sequence: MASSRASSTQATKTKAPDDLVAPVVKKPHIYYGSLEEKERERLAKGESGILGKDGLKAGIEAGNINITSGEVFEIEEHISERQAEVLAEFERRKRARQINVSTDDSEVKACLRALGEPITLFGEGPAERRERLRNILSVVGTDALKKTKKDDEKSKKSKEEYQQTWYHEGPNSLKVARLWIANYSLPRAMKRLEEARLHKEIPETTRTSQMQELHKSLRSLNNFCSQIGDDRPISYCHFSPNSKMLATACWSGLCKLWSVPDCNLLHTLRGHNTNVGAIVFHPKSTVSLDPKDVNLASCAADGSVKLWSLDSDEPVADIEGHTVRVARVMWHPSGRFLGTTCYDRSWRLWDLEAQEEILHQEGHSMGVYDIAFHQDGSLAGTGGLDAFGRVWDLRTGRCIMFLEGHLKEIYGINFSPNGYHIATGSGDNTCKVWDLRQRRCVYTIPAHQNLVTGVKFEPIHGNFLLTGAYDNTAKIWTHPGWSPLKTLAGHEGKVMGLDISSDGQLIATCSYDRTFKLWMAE
Method in brief: as §1

Sequence of HSP90AB2P (Q58FF8 whole entry): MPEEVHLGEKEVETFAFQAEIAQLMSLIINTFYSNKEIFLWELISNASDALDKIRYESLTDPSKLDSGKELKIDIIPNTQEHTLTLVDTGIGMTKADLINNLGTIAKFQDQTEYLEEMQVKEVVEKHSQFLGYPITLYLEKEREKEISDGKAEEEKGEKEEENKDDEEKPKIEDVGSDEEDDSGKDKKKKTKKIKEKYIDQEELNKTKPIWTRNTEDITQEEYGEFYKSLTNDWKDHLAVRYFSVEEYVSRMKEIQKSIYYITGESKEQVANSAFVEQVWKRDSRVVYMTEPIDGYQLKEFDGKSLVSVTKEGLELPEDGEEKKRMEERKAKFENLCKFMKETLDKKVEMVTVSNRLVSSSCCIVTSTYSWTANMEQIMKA

**Q.** For AAUAAA, which EC50 [1] is on record?
**A.** The EC50 was 0.129 µM.

**Q.** And the EC50 [2]?
**A.** The EC50 was 9.6 µM.

**Q.** And the EC50 [3]?
**A.** Its EC50 is 3.52 µM.

**Q.** Which EC50 [4] does the source give for CUGUCCU here?
**A.** Its EC50 is 0.244 µM.

**Q.** Which results are given for UAUUUAU?
**A.** EC50 [5]: 2.91 µM; EC50 [6]: 6.81 µM
